Biological target: recombinant human prolidase with N-terminal His-Tag (human) (UniProt P12955)
Test: SEC; Superdex 200 gel filtration in 150 mM NaCl, 25 mM Tris-HCl pH 7.5, 1 mM TCEP-HCl; mass by a commercial standard (Bio-Rad)

stoichiometry N: 2
Substance: recombinant human prolidase with N-terminal His-Tag (from UniProt P12955 1-493) (enzyme)

Reference: publication PMC9600000
